From paper PMC5666004

Columns and labels:
[1] = target: HSP90-MC (residues 236–696) (UniProt P07900); assay: SEC; Superdex-200 Increase 10/300 GL, ~100 μM protein loaded; 20 mM phosphate, 50 mM NaCl, pH 6.5; apparent molecular weights from calibration with standard proteins
[2] = target: Htt-N20-GB1 (N-terminal 20-residue fragment of Htt with GB1 fused at the C terminus) (UniProt P42858); assay: NMR titration; 15N-labelled Htt-N20-GB1 or mutants (50 μM) titrated with HSP90 constructs or HSP70; [1H,15N] HSQC peak intensities; 20 mM phosphate, 50 mM NaCl, pH 6.5, 25 °C
Htt-N20^S13P-GB1 = Htt-N20^S13P-GB1 (UniProt P42858); assay: as above

HSP90-MC (residues 236–696) (from UniProt P07900 236-696) (domain or fragment)
stoichiometry N [1]: 2

HSP90(1–696) (from UniProt P07900 1-696) (domain or fragment)
average relative peak intensity of the Htt-N20 moiety at a 1:1 ratio [2]: 0.59 | average relative peak intensity of the Htt-N20 moiety at a 1:1 ratio (Htt-N20^S13P-GB1): 0.86
